Literature values as cited in patent US10064909B2, “Compositions and methods for chronic use of a weight-gaining compound” (priority 2015, dated 2018).
Ends that are not written are not given here.

Conditions: in vivo; cited from earlier work

**Q.** Which “half-life in the blood” value does the source give for “Ghrelin: hormone produced predominantly in the glandular stomach; endogenous ligand of the ghrelin receptor (GHS-R) (GSSFLSPEHQRVQQRKESKKPPAKLQPR; ends and bridges not checked; UniProt Q9UBU3 24-51, looked up)” here?
**A.** approximately ten minutes
